Our source for the FACS fluorescence values is patent publication US20250333501A1 (University of California, published 2025).

Substitutions are numbered along the chain they refer to.

To fix the notation:
B1: AB3-chim (antibody, V domains shown)
VH: EVKLEESGGGLVQPGGSMKLSCVASGFTFSNYWMNWVRQSPEKGLEWVAQIRLKSDNYATHYAESVKGRFTISRDDSKRSVYLQMNNLRAEDTGTYYCNDGPPSGCWGQGTTLIVSS
VL: DIQMTQSPASLSASVGETVTITCRISENIYSYLAWYQQKQGKSPQLLVYNAKILVEGVPSRFSGSGSGTQFSLKINSLQPEDFGNYYCQHHYTVPWTFGGGTKLEIK
notes: 'chim' is the pre-humanized form (parental variable regions); also called pre-humanized (chimeric) form of AB3
B2: AB4-6 (antibody, V domains shown)
VH: QVQLVQSGAEVKKPGASVKMSCKASGYTFTSYTMHWIRQAPGQGLEWIGYINPSSTYTHYAQKFQGRATLTADKSTSTAYMELSSLRSEDTAVYYCSRGELGGFAYWGQGTLVTVSS
VL: DVVMTQSPLSLPVTLGQPASISCRSSQSLVHSDGNTYLNWYQQRPGQSPRLLIYKVSNRFSGVPDRFSGSGSGTDFTLKISRVEAEDVGVYYCSQSTHVPYTFGQGTKLEIK
notes: also called Humanized AB 4-6
B3: AB4-12 (antibody, V domains shown)
VH: B2 VH with L45Q, A61I, Q62K, Q65K, G66D
VL: B2 VL
notes: Humanized; also called Humanized AB 4-12
B4: AB4-7 (antibody, V domains shown)
VH: B2 VH with L45Q
VL: B2 VL
notes: also called Humanized AB 4-7
B5: AB4-9 (antibody, V domains shown)
VH: B2 VH with A61I, Q62K, Q65K, G66D, K74T
VL: B2 VL
notes: Humanized; also called Humanized AB 4-9
B6: AB4-8 (antibody, V domains shown)
VH: QVQLVQSGAEVKKPGASVKVSCKASGYTFTSYTMHWVRQAPGQGLEWMGYINPSSTYTHYIKKFKDRVTMTADTSTSTVYMELSSLRSEDTAVYYCSRGELGGFAYWGQGTLVTVSS
VL: B2 VL
notes: Humanized; also called Humanized AB 4-8
B7: AB4-11 (antibody, V domains shown)
VH: B2 VH with A61I, Q62K, Q65K, G66D
VL: B2 VL
notes: Humanized; also called Humanized AB 4-11
B8: AB4-10 (antibody, V domains shown)
VH: B2 VH with L45Q, A61I, Q62K, Q65K, G66D, K74T
VL: B2 VL
notes: Humanized; also called Humanized AB 4-10
B9: AB1-7 (antibody, V domains shown)
VH: QVQLVQSGAEVKKPGASVKMSCKASGYTFTTYTMHWVRQAPGQGLEWIGFINPSSGYTDYAQKFQGRVTLTADTSTSTVYMELSSLRSEDTAVYYCANGDYYVAYWGQGTLVTVSS
VL: DIQLTQSPSSLSASVGDRVTMTCTASSSVSSTYFHWYQQKPGKAPKLLIYSTSNLASGVPSRFSGSGSGTDYTLTISSMQPEDAATYYCHQYHRSPLTFGQGTKLEIK
notes: Humanized; also called Humanized AB 1-7
B10: AB1-11 (antibody, V domains shown)
VH: B9 VH with T74K
VL: B9 VL with L48W
notes: Humanized; also called Humanized AB 1-11
B11: AB1-4 (antibody, V domains shown)
VH: B9 VH with M20V, I48M, L70M
VL: B9 VL
notes: also called Humanized AB 1-4
B12: AB1-6 (antibody, V domains shown)
VH: B9 VH
VL: B9 VL with L4M, M21I, M79L, A84F
notes: also called Humanized AB 1-6
B13: AB1-5 (antibody, V domains shown)
VH: B9 VH with M20V, I48M, L70M
VL: B9 VL with L48W
notes: also called Humanized AB 1-5
B14: AB1-3 (antibody, V domains shown)
VH: B9 VH with M20V, I48M, L70M
VL: B9 VL with L4M, M21I, M79L, A84F
notes: also called Humanized AB 1-3
B15: AB1-8 (antibody, V domains shown)
VH: B9 VH
VL: B9 VL with L48W
notes: Humanized; also called Humanized AB 1-8
B16: AB1-Chim (antibody, V domains shown)
VH: QVQLQQSAAELARPGASVKMSCKASGYTFTTYTMHWVKQRPGQGLEWIGFINPSSGYTDYNQKFKDRTTLTADKSSSTVYMQLSSLTSEDSAVYYCANGDYYVAYWGQGTLVTVSA
VL: QIVLTQSPAIMSASLGERVTMTCTASSSVSSTYFHWYQQKPGSSPKLWIYSTSNLASGVPRRFSGSASGTSYSLTISSMEAEDAATYYCHQYHRSPLTFGAGTKLELK
notes: 'chim' is the pre-humanized form (parental variable regions); also called pre-humanized (chimeric) form of AB1
B17: AB3-3 (antibody, V domains shown)
VH: EVQLLESGGGLVQPGGSMRLSCAASGFTFSNYWMNWVRQAPGKGLEWVAQIRLKSDNYATHYADSVKGRFTISRDDSKNTVYLQMNSLRAEDTGVYYCNDGPPSGCWGQGTLLTVSS
VL: DIQMTQSPSSLSASVGDRVTITCRISENIYSYLAWYQQKPGKAPKLLVYNAKILVEGVPSRFSGSGSGTDFTLTISSLQPEDFGTYYCQHHYTVPWTFGQGTKLEIK
notes: also called Humanized AB 3-3
B18: AB3-7 (antibody, V domains shown)
VH: B17 VH with C106S
VL: B17 VL
notes: also called Humanized AB 3-7

In one experiment the target is T1, CLDN6 endogenously expressed by human cancer cell lines (ARK2, OVCA429) (human, UniProt P56747 1-220).
T1 construct: Untagged endogenous protein; also called Endogenous CLDN6+
T1 sequence: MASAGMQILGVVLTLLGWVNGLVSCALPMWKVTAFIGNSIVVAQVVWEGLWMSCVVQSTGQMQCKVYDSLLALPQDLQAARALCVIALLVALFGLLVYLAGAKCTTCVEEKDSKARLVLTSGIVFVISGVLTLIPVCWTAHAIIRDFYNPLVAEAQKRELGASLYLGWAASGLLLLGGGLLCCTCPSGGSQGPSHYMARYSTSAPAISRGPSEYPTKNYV
Briefly: FACS, 1.5 µg Ab, ARK2 cells. How it is done:
(§1) FACS assays were also carried out to determine relative antigen binding strengths of the humanized antibodies (at either 1.5 μg or 0.3 μg) for binding to CLDN6 as expressed by the indicated cancer cell lines. 2nd Ab only was used as a negative control.
Background: Flow cytometry measures light scatter and fluorescence of single cells or particles in a stream.
B1 came in with an FACS fluorescence of 29100.
On the same count and under the same terms, in the case of B2 it was 9840.
Still for that read-out and setting: in the case of B3 it was 24200; in that of B4, 7560; in that of B5, 7790.
Still for that read-out and setting: the figure for B6 is 7310; for B7 it is 9170; for B8 it is 20200.
B9 had an FACS fluorescence of 11200.
Regarding B10, the FACS fluorescence stood at 97700.
The same measure, in the same setting: in the case of B11 it was 10000; in that of B12, 7740.
Same read-out and setting: in the case of B13 it was 22400; in that of B14, 10800; in that of B15, 17600.
Take B16: the FACS fluorescence was 51900.
On the same count and under the same terms, the figure for B17 is 54900; for B18 it is 90400.

In the next experiment the target is T1, CLDN6 endogenously expressed by human …. Briefly: FACS, 1.5 µg Ab, OVCA429 cells.
B1 yielded an FACS fluorescence of 138000.
Still for that read-out and setting: the figure for B9 is 44700; for B11 it is 34600; for B12 it is 29900.
On the same count and under the same terms, in the case of B13 it was 54300; in that of B14, 27500; in that of B15, 66000.
With B16, the FACS fluorescence was 177000.
The same measure, in the same setting: in the case of B17 it was 88700.

A further experiment has the same target. Nature of the experiment: FACS, 0.3 µg Ab, ARK2 cells. How it is done:
as §1
As for B1, the FACS fluorescence turned out to be 17100.
Same read-out and setting: in the case of B2 it was 3300; in that of B3, 9690; in that of B4, 2770.
Same read-out and setting: the figure for B5 is 3060.
The same measure, in the same setting: in the case of B6 it was 3120; in that of B7, 6390; in that of B8, 7210.
Molecule B9 gave an FACS fluorescence of 4440.
For B10, the FACS fluorescence stood at 53900.
Same read-out and setting: the figure for B11 is 3640; for B12 it is 2820.
The same measure, in the same setting: in the case of B13 it was 7490.
The same measure, in the same setting: in the case of B14 it was 2830.
On to B15, for which the FACS fluorescence was 5810.
On the same count and under the same terms, the figure for B16 is 58800; for B17 it is 1160.
Still for that read-out and setting: in the case of B18 it was 36000.

A further experiment deals with T2, human CLDN6 fused to GFP, expressed on engineered HEK293T cells (HEK293T-CLDN6-mGFP) (human, UniProt P56747 1-220).
T2 construct: It calls residues 1-21 a signal peptide; also called Claudin-6; HEK293T-CLDN6-mGFP Artificial CLDN6+; not shown: mGFP tag
T2 sequence: T1 sequence
Briefly: FACS, 1.5 µg Ab, 293T clone with human CLDN6. In outline:
(§2)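 Using a direct-binding flow cytometry method essentially as in the source, humanized antibodies were tested on engineered 293T clones expressing human CLDN6. Labelled antibody (Alexa Fluor 647 NHS ester) was added at 0.3 µg or 1.5 µg to EDTA-detached cells, which were kept on ice in the dark for 30 min, washed and read in channel FL4H of a BD Accuri C6. Fluorescence indicates relative antigen binding strength.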
Molecule B1 registered an FACS fluorescence of 459000.
On the same count and under the same terms, the figure for B2 is 29200; for B3 it is 86200; for B4 it is 33300.
In turn, B5 returned an FACS fluorescence of 56900.
The same measure, in the same setting: in the case of B6 it was 77600.
Consider B7, for which the FACS fluorescence is 61200.
The same measure, in the same setting: in the case of B8 it was 77200.
With B9, the FACS fluorescence was 207000.
Still for that read-out and setting: the figure for B10 is 113000; for B11 it is 197000.
Same read-out and setting: the figure for B12 is 227000; for B13 it is 213000; for B14 it is 142000.
For B15, the FACS fluorescence was 210000.
On to B16, for which the FACS fluorescence is 364000.
Still for that read-out and setting: in the case of B17 it was 340000; in that of B18, 169000.

For a further experiment, the target named is T2, human CLDN6 fused to GFP, expressed on …. Briefly: FACS, 0.3 µg Ab, 293T clone with human CLDN6. In outline:
as §2
On to B1, for which the FACS fluorescence was found to be 267000.
Same read-out and setting: in the case of B2 it was 10800; in that of B3, 71100; in that of B4, 19200.
The molecule B5 returned an FACS fluorescence of 37200.
Same read-out and setting: the figure for B6 is 49300; for B7 it is 37800.
Same read-out and setting: in the case of B8 it was 50800; in that of B9, 79200.
Molecule B10 registered an FACS fluorescence of 64900.
The same measure, in the same setting: the figure for B11 is 102000.
Same read-out and setting: the figure for B12 is 120000; for B13 it is 138000; for B14 it is 142000.
Same read-out and setting: the figure for B15 is 98800; for B16 it is 312000.
The molecule B17 registered an FACS fluorescence of 251000.
In turn, B18 displayed an FACS fluorescence of 106000.
